Molecular target: T1, EGF receptor on human A431 cancer cells (human, UniProt P00533 25-1210)
T1 construct: whole, on cells; also called epidermal growth factor receptor; ErbB1
Test: competition assay on A431 cells, Mab425 fixed at 6.67 nM as competitor, Peptabody EGF 0.1 to 200 nM

B1: Peptabody EGF (designed binder)
chain: MYSFEDLASHHHHHHGDLGPQMLRELQETNAALQDVRDYLRQLVREITFLKNTVMECDACGMQQTSPPTPPTPSPSTPPTPSPRSNSDSECPLSHDGYCLHDGVCMYIEALDKYACNCVVGYIGERCQYRDLKWWELR
notes: also called p-EGF; P-EGF
B1: binds.
